Data: US20210040155A1 (RHYTHM PHARMACEUTICALS, published 2021)
Bridge positions count the residues as written; N and C are the ends. Square brackets hold non-standard residues; d marks the D form. dPhe(4-F) = N[C@H](Cc1ccc(F)cc1)C(=O)O; Pen = CC(C)(S)[C@H](N)C(=O)O; hCys = N[C@@H](CCS)C(=O)O

B1: Ac-Glu-cyclo[Cys-Ala-His-D-Phe-Arg-Trp-Cys]-NH2 (peptide)
peptide: Ac-ECAH[dF]RWC-NH2
modifications: disulfide 2-8
SMILES: CC(=O)N[C@@H](CCC(=O)O)C(=O)N[C@H]1CSSC[C@@H](C(N)=O)NC(=O)[C@H](Cc2c[nH]c3ccccc23)NC(=O)[C@H](CCCNC(=N)N)NC(=O)[C@@H](Cc2ccccc2)NC(=O)[C@H](Cc2c[nH]cn2)NC(=O)[C@H](C)NC1=O
B2: Ac-Arg-cyclo[Cys-D-Ala-Pro-D-Phe(p-F)-Arg-Trp-Cys]-NH2 (peptide)
peptide: Ac-RC[dA]P[dPhe(4-F)]RWC-NH2
modifications: disulfide 2-8
SMILES: CC(=O)N[C@@H](CCCNC(=N)N)C(=O)N[C@H]1CSSC[C@@H](C(N)=O)NC(=O)[C@H](Cc2c[nH]c3ccccc23)NC(=O)[C@H](CCCNC(=N)N)NC(=O)[C@@H](Cc2ccc(F)cc2)NC(=O)[C@@H]2CCCN2C(=O)[C@@H](C)NC1=O
B3: Ac-Arg-cyclo[hCys-Ala-D-Phe-Arg-Trp-Cys]-NH2 (peptide)
peptide: Ac-R[hCys]A[dF]RWC-NH2
modifications: disulfide 2-7
SMILES: CC(=O)N[C@@H](CCCNC(=N)N)C(=O)N[C@H]1CCSSC[C@@H](C(N)=O)NC(=O)[C@H](Cc2c[nH]c3ccccc23)NC(=O)[C@H](CCCNC(=N)N)NC(=O)[C@@H](Cc2ccccc2)NC(=O)[C@H](C)NC1=O
B4: Ac-Arg-cyclo[Cys-D-Ala-Gln-D-Phe-Arg-Trp-Cys]-NH2 (peptide)
peptide: Ac-RC[dA]Q[dF]RWC-NH2
modifications: disulfide 2-8
SMILES: CC(=O)N[C@@H](CCCNC(=N)N)C(=O)N[C@H]1CSSC[C@@H](C(N)=O)NC(=O)[C@H](Cc2c[nH]c3ccccc23)NC(=O)[C@H](CCCNC(=N)N)NC(=O)[C@@H](Cc2ccccc2)NC(=O)[C@H](CCC(N)=O)NC(=O)[C@@H](C)NC1=O
B5: Ac-Arg-cyclo[hCys-D-Ala-D-Phe-Arg-Trp-Cys]-NH2 (peptide)
peptide: Ac-R[hCys][dA][dF]RWC-NH2
modifications: disulfide 2-7
SMILES: CC(=O)N[C@@H](CCCNC(=N)N)C(=O)N[C@H]1CCSSC[C@@H](C(N)=O)NC(=O)[C@H](Cc2c[nH]c3ccccc23)NC(=O)[C@H](CCCNC(=N)N)NC(=O)[C@@H](Cc2ccccc2)NC(=O)[C@@H](C)NC1=O
B6: Ac-Arg-cyclo[Cys-D-Ala-Trp-D-Phe-Arg-Trp-Cys]-NH2 (peptide)
peptide: Ac-RC[dA]W[dF]RWC-NH2
modifications: disulfide 2-8
SMILES: CC(=O)N[C@@H](CCCNC(=N)N)C(=O)N[C@H]1CSSC[C@@H](C(N)=O)NC(=O)[C@H](Cc2c[nH]c3ccccc23)NC(=O)[C@H](CCCNC(=N)N)NC(=O)[C@@H](Cc2ccccc2)NC(=O)[C@H](Cc2c[nH]c3ccccc23)NC(=O)[C@@H](C)NC1=O
B7: Ac-Arg-cyclo[Cys-D-Ala-Asn-D-Phe-Arg-Trp-Cys]-NH2 (peptide)
peptide: Ac-RC[dA]N[dF]RWC-NH2
modifications: disulfide 2-8
SMILES: CC(=O)N[C@@H](CCCNC(=N)N)C(=O)N[C@H]1CSSC[C@@H](C(N)=O)NC(=O)[C@H](Cc2c[nH]c3ccccc23)NC(=O)[C@H](CCCNC(=N)N)NC(=O)[C@@H](Cc2ccccc2)NC(=O)[C@H](CC(N)=O)NC(=O)[C@@H](C)NC1=O
B8: Ac-Arg-cyclo[Cys-D-Ala-Pro-D-Phe-Arg-Trp-Cys]-NH2 (peptide)
peptide: Ac-RC[dA]P[dF]RWC-NH2
modifications: disulfide 2-8
SMILES: CC(=O)N[C@@H](CCCNC(=N)N)C(=O)N[C@H]1CSSC[C@@H](C(N)=O)NC(=O)[C@H](Cc2c[nH]c3ccccc23)NC(=O)[C@H](CCCNC(=N)N)NC(=O)[C@@H](Cc2ccccc2)NC(=O)[C@@H]2CCCN2C(=O)[C@@H](C)NC1=O
B9: Ac-Arg-cyclo[hCys-D-Ala-D-Phe-Arg-Trp-Pen]-NH2 (peptide)
peptide: Ac-R[hCys][dA][dF]RW[Pen]-NH2
modifications: disulfide 2-7
SMILES: CC(=O)N[C@@H](CCCNC(=N)N)C(=O)N[C@H]1CCSSC(C)(C)[C@@H](C(N)=O)NC(=O)[C@H](Cc2c[nH]c3ccccc23)NC(=O)[C@H](CCCNC(=N)N)NC(=O)[C@@H](Cc2ccccc2)NC(=O)[C@@H](C)NC1=O
B10: Ac-Arg-cyclo[Cys-D-Ala-Tyr-D-Phe-Arg-Trp-Cys]-NH2 (peptide)
peptide: Ac-RC[dA]Y[dF]RWC-NH2
modifications: disulfide 2-8
SMILES: CC(=O)N[C@@H](CCCNC(=N)N)C(=O)N[C@H]1CSSC[C@@H](C(N)=O)NC(=O)[C@H](Cc2c[nH]c3ccccc23)NC(=O)[C@H](CCCNC(=N)N)NC(=O)[C@@H](Cc2ccccc2)NC(=O)[C@H](Cc2ccc(O)cc2)NC(=O)[C@@H](C)NC1=O
B11: Ac-Arg-cyclo[Cys-D-Ala-Arg-D-Phe-Arg-Trp-Cys]-NH2 (peptide)
peptide: Ac-RC[dA]R[dF]RWC-NH2
modifications: disulfide 2-8
SMILES: CC(=O)N[C@@H](CCCNC(=N)N)C(=O)N[C@H]1CSSC[C@@H](C(N)=O)NC(=O)[C@H](Cc2c[nH]c3ccccc23)NC(=O)[C@H](CCCNC(=N)N)NC(=O)[C@@H](Cc2ccccc2)NC(=O)[C@H](CCCNC(=N)N)NC(=O)[C@@H](C)NC1=O

Biological target: melanocortin-5 receptor (human, UniProt P33032 1-325)
Test: cell-based or functional assay

melanocortin-5 receptor, sequence (P33032 whole entry): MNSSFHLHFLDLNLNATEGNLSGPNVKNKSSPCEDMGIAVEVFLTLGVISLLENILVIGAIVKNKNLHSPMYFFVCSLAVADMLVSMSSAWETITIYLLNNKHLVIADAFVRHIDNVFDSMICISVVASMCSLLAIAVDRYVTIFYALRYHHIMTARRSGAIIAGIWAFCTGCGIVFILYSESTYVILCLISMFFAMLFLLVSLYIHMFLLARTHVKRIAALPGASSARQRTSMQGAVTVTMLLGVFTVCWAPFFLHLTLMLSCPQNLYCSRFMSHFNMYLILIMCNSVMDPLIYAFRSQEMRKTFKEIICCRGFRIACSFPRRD

Ratios of EC50 values MC 5/4 (MC5R against MC4R) [ratio]	cAMP Assay (EC-50) [nM]	Binder
> 2560	1280	B1
12	283	B2
161	42	B3
155	255	B4
> 1340	> 10000	B5
584	782	Ac-RC[dV]H[dF]RWC-NH2 (disulfide 2-8) [Ac-Arg-cyclo[Cys-D-Val-His-D-Phe-Arg-Trp-Cys]-NH2]
130	91	Ac-RC[dL]H[dF]RWC-NH2 (disulfide 2-8) [Ac-Arg-cyclo[Cys-D-Leu-His-D-Phe-Arg-Trp-Cys]-NH2]
420	420	Ac-RC[dI]H[dF]RWC-NH2 (disulfide 2-8) [Ac-Arg-cyclo[Cys-D-Ile-His-D-Phe-Arg-Trp-Cys]-NH2]
7	259	B6
530	1490	B7
13	707	B8
159	2180	B9

Biological target: melanocortin-3 receptor (human, UniProt P41968 1-323)
Test: cell-based or functional assay

melanocortin-3 receptor, sequence (P41968 whole entry): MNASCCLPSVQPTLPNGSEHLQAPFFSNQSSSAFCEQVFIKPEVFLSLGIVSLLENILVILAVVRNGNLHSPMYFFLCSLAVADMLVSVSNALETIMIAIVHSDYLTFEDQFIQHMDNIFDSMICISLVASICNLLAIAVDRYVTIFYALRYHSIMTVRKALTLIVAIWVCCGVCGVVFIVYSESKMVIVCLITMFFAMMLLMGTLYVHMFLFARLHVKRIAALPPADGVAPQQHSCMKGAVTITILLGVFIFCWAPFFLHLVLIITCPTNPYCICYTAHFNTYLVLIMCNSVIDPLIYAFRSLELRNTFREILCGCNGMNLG

Ratios of EC50 values MC 3/4 (MC3R against MC4R) [ratio]	cAMP Assay (EC-50) [nM]	Binder
> 20	9.9	B1
> 22.2	> 1000	B10
> 400	> 10000	B2
3.8	1	B3
5	8.6	B4
420	3160	B5
1.19	1.59	Ac-RC[dV]H[dF]RWC-NH2 (disulfide 2-8) [Ac-Arg-cyclo[Cys-D-Val-His-D-Phe-Arg-Trp-Cys]-NH2]
1.13	0.79	Ac-RC[dL]H[dF]RWC-NH2 (disulfide 2-8) [Ac-Arg-cyclo[Cys-D-Leu-His-D-Phe-Arg-Trp-Cys]-NH2]
1.45	3.9	B11
0.96	0.96	Ac-RC[dI]H[dF]RWC-NH2 (disulfide 2-8) [Ac-Arg-cyclo[Cys-D-Ile-His-D-Phe-Arg-Trp-Cys]-NH2]
> 290	> 10000	B6
30	81	B7
> 200	> 10000	B8
17	233	B9

Biological target: melanocortin-4 receptor (human, UniProt P32245 1-332)
Test: cell-based or functional assay

melanocortin-4 receptor, sequence (P32245 whole entry): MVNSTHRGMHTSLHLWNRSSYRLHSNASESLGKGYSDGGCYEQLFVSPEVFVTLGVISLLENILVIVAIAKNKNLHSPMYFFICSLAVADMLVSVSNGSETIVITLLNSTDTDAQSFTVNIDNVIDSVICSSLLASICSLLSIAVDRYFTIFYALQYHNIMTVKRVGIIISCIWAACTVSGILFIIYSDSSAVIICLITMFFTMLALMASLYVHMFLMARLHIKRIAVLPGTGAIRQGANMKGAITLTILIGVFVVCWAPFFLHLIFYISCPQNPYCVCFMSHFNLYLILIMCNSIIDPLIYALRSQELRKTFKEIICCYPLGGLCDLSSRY

cAMP Assay (EC-50) [nM]	Binder
< 0.5	B1
45.1	B10
24	B2
0.26	B3
1.6	B4
7.5	B5
1.34	Ac-RC[dV]H[dF]RWC-NH2 (disulfide 2-8) [Ac-Arg-cyclo[Cys-D-Val-His-D-Phe-Arg-Trp-Cys]-NH2]
0.7	Ac-RC[dL]H[dF]RWC-NH2 (disulfide 2-8) [Ac-Arg-cyclo[Cys-D-Leu-His-D-Phe-Arg-Trp-Cys]-NH2]
2.7	B11
1	Ac-RC[dI]H[dF]RWC-NH2 (disulfide 2-8) [Ac-Arg-cyclo[Cys-D-Ile-His-D-Phe-Arg-Trp-Cys]-NH2]
34	B6
3	B7
56	B8
13.7	B9

Biological target: melanocortin-1 receptor (human, UniProt Q01726 1-317)
Test: cell-based or functional assay

melanocortin-1 receptor, sequence (Q01726 whole entry): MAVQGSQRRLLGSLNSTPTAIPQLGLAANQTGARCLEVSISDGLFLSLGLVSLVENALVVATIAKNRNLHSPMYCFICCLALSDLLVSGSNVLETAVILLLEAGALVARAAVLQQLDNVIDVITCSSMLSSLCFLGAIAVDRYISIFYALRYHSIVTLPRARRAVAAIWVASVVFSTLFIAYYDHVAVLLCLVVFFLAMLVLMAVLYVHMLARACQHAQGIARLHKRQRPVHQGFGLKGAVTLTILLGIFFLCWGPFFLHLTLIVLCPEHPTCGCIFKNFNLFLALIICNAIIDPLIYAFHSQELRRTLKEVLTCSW

Ratios of EC50 values MC 1/4 (MC1R against MC4R) [ratio]	cAMP Assay (EC-50) [nM]	Binder
> 3	1.7	B1
6.67	301	B10
7	169	B2
15	4	B3
40	71	B4
120	888	B5
0.93	1.25	Ac-RC[dV]H[dF]RWC-NH2 (disulfide 2-8) [Ac-Arg-cyclo[Cys-D-Val-His-D-Phe-Arg-Trp-Cys]-NH2]
0.68	0.47	Ac-RC[dL]H[dF]RWC-NH2 (disulfide 2-8) [Ac-Arg-cyclo[Cys-D-Leu-His-D-Phe-Arg-Trp-Cys]-NH2]
2.31	6.2	B11
0.69	0.69	Ac-RC[dI]H[dF]RWC-NH2 (disulfide 2-8) [Ac-Arg-cyclo[Cys-D-Ile-His-D-Phe-Arg-Trp-Cys]-NH2]
8	273	B6
90	248	B7
5	280	B8
15	195	B9
